# From the supplement of paper PMC9112550, “Optimization of the antimicrobial peptide Bac7 by deep mutational scanning” (BMC Biology, 2022)
# Test system: Escherichia coli TOP10
# Test: shrunken log2 fold change of peptide-encoding DNA abundance (4.5 h post-induction vs induction); higher = less antimicrobial activity (less host growth inhibition)
# Conditions: time post-induction: 4.5 h; library: site-saturation at positions 5, 18, 19, 20
# 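Also: peptides expressed intracellularly from a pBAD plasmid library in pooled LB shake-flask culture, induced with 0.3% L-arabinose, DNA abundance read by NGS, three biological replicates, DESeq2 with apeglm shrinkage.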
row,Sequence,shrunken log2 fold change
1,RRIRVRPPRLPRPRPRPVDYPRP,-0.034
2,RRIRCRPPRLPRPRPRPMPAPRP,0.849
3,RRIRPRPPRLPRPRPRPRQDPRP,0.351
4,RRIRDRPPRLPRPRPRPFEDPRP,0.265
5,RRIRDRPPRLPRPRPRPFADPRP,-0.0225
6,RRIRNRPPRLPRPRPRPFAHPRP,-0.00369
7,RRIRERPPRLPRPRPRPHVPPRP,-0.0791
8,RRIRQRPPRLPRPRPRPSARPRP,-0.00609
9,RRIRHRPPRLPRPRPRPYIQPRP,-0.73
10,RRIRSRPPRLPRPRPRPNHYPRP,-0.789
11,RRIRWRPPRLPRPRPRPYMWPRP,0.00889
12,RRIRIRPPRLPRPRPRPGNDPRP,-0.0662
13,RRIRDRPPRLPRPRPRPDHIPRP,-0.0651
14,RRIRPRPPRLPRPRPRPCTCPRP,-0.049
15,RRIRDRPPRLPRPRPRPRNAPRP,-0.145
16,RRIRSRPPRLPRPRPRPWCKPRP,0.149
17,RRIRFRPPRLPRPRPRPHHPPRP,-0.374
18,RRIRIRPPRLPRPRPRPMMWPRP,-0.00731
19,RRIRERPPRLPRPRPRPHTGPRP,-1.1
20,RRIRKRPPRLPRPRPRPPHAPRP,0.728
21,RRIRHRPPRLPRPRPRPIHWPRP,-0.0298
22,RRIRNRPPRLPRPRPRPEHNPRP,-0.486

row,Sequence,shrunken log2 fold change
1,RRIRIRPPRLPRPRPRPIKRPRP,-0.0331
2,RRIRQRPPRLPRPRPRPCCKPRP,-0.00783
3,RRIRTRPPRLPRPRPRPWYRPRP,-0.23
4,RRIRERPPRLPRPRPRPIRIPRP,-0.00822
5,RRIRCRPPRLPRPRPRPFGIPRP,-0.129
6,RRIRHRPPRLPRPRPRPMNWPRP,-0.209
7,RRIRQRPPRLPRPRPRPWYEPRP,0.0185
8,RRIRFRPPRLPRPRPRPWAWPRP,0.174
9,RRIRMRPPRLPRPRPRPNFGPRP,0.0832
10,RRIRMRPPRLPRPRPRPYMIPRP,-0.00479
11,RRIRMRPPRLPRPRPRPKSGPRP,-0.101
12,RRIRHRPPRLPRPRPRPICWPRP,0.0429
13,RRIRSRPPRLPRPRPRPIYTPRP,-0.548
14,RRIRMRPPRLPRPRPRPWSDPRP,-0.131
15,RRIRGRPPRLPRPRPRPYRIPRP,0.178
16,RRIRTRPPRLPRPRPRPGYTPRP,0.0635
17,RRIRLRPPRLPRPRPRPMQGPRP,-0.0711
18,RRIRQRPPRLPRPRPRPVTHPRP,4.01
19,RRIRCRPPRLPRPRPRPQVPPRP,-0.106
20,RRIRDRPPRLPRPRPRPKHTPRP,0.136
21,RRIRVRPPRLPRPRPRPHLAPRP,0.101
22,RRIRYRPPRLPRPRPRPYCLPRP,-1.15

row,Sequence,shrunken log2 fold change
1,RRIRHRPPRLPRPRPRPKPLPRP,0.127
2,RRIRQRPPRLPRPRPRPGRYPRP,-0.205
3,RRIRMRPPRLPRPRPRPALMPRP,0.114
4,RRIRLRPPRLPRPRPRPNFPPRP,-0.00674
5,RRIRYRPPRLPRPRPRPFFAPRP,-0.18
6,RRIRKRPPRLPRPRPRPAHDPRP,0.536
7,RRIRRRPPRLPRPRPRPIEKPRP,0.149
8,RRIRKRPPRLPRPRPRPVLAPRP,0.605
9,RRIRTRPPRLPRPRPRPPPHPRP,0.907
10,RRIRRRPPRLPRPRPRPNVEPRP,0.318
11,RRIRVRPPRLPRPRPRPQLWPRP,0.0627
12,RRIRPRPPRLPRPRPRPCEEPRP,0.205
13,RRIRNRPPRLPRPRPRPEIKPRP,0.101
14,RRIRDRPPRLPRPRPRPCITPRP,-0.128
15,RRIRSRPPRLPRPRPRPGMTPRP,-0.105
16,RRIRIRPPRLPRPRPRPQEVPRP,0.0526
17,RRIRMRPPRLPRPRPRPTMEPRP,0.868
18,RRIRERPPRLPRPRPRPTRFPRP,0.169
19,RRIRIRPPRLPRPRPRPPEFPRP,-0.0754
20,RRIRIRPPRLPRPRPRPWGLPRP,-0.192
21,RRIRDRPPRLPRPRPRPCAQPRP,1.19
22,RRIRRRPPRLPRPRPRPKASPRP,0.183

row,Sequence,shrunken log2 fold change
1,RRIRMRPPRLPRPRPRPVPVPRP,0.364
2,RRIRYRPPRLPRPRPRPRPFPRP,-0.104
3,RRIRHRPPRLPRPRPRPYNLPRP,-0.302
4,RRIRIRPPRLPRPRPRPIKDPRP,-0.467
5,RRIRPRPPRLPRPRPRPEKFPRP,-0.181
6,RRIRNRPPRLPRPRPRPMLTPRP,-0.296
7,RRIRTRPPRLPRPRPRPLYKPRP,-0.274
8,RRIRGRPPRLPRPRPRPEGGPRP,1.17
9,RRIRERPPRLPRPRPRPFCKPRP,0.0112
10,RRIRWRPPRLPRPRPRPKATPRP,0.264
11,RRIRVRPPRLPRPRPRPWSQPRP,-0.219
12,RRIRLRPPRLPRPRPRPCWKPRP,0.00126
13,RRIRNRPPRLPRPRPRPIWCPRP,-0.0833
14,RRIRHRPPRLPRPRPRPDMTPRP,-0.06
15,RRIRPRPPRLPRPRPRPTSGPRP,0.173
16,RRIRVRPPRLPRPRPRPPNQPRP,0.184
17,RRIRARPPRLPRPRPRPHKVPRP,0.31
18,RRIRWRPPRLPRPRPRPGYMPRP,-0.288
19,RRIRSRPPRLPRPRPRPNFCPRP,0.0353
20,RRIRQRPPRLPRPRPRPKRMPRP,-0.0373
21,RRIRPRPPRLPRPRPRPGHSPRP,-0.0921
22,RRIRARPPRLPRPRPRPMDPPRP,0.0606

row,Sequence,shrunken log2 fold change
1,RRIRPRPPRLPRPRPRPMDCPRP,-0.00833
2,RRIRSRPPRLPRPRPRPIRDPRP,0.156
3,RRIRTRPPRLPRPRPRPVHAPRP,-0.00294
4,RRIRARPPRLPRPRPRPCKYPRP,-0.201
5,RRIRMRPPRLPRPRPRPTYYPRP,-0.554
6,RRIRPRPPRLPRPRPRPNRWPRP,0.106
7,RRIRIRPPRLPRPRPRPDTQPRP,-0.167
8,RRIRARPPRLPRPRPRPVEYPRP,0.0729
9,RRIRERPPRLPRPRPRPCGMPRP,-0.398
10,RRIRARPPRLPRPRPRPEQDPRP,0.805
11,RRIRLRPPRLPRPRPRPVLTPRP,-0.198
12,RRIRVRPPRLPRPRPRPTNPPRP,-0.296
13,RRIRWRPPRLPRPRPRPQPTPRP,0.334
14,RRIRCRPPRLPRPRPRPQWIPRP,-0.692
15,RRIRARPPRLPRPRPRPNQAPRP,-0.117
16,RRIRYRPPRLPRPRPRPMRYPRP,-0.114
17,RRIRRRPPRLPRPRPRPGYNPRP,-0.27
18,RRIRLRPPRLPRPRPRPKGKPRP,-0.106
19,RRIRKRPPRLPRPRPRPAGHPRP,0.0606
20,RRIRTRPPRLPRPRPRPCSTPRP,-0.11
21,RRIRFRPPRLPRPRPRPRVQPRP,0.263
